The Kd is the equilibrium constant for the complex coming apart.

The results in this text go back to PMC10019796.

The experiment has as its target mtDsbC-SARS-CoV-2 RBD wild type fusion protein (SARS-CoV-2) (UniProt P0DTC2). Description: BLI; biotinylated mtDsbC-RBD (20 µg/mL) immobilised on streptavidin (SA) biosensors, Fabs as analytes at three nanomolar concentrations; Octet RED384, 30 °C, 1000 rpm, 1 × PBS Kinetics Buffer; 1:1 interaction model, global fit. (In general: Biolayer interferometry detects binding as a change in optical thickness at a sensor tip.)

As for REGN10987 (L93Q) Fab, the Kd is > 1000 nM.
